Here are results for five molecules from patent publication US20140087972, “METHOD OF IMMOBILISING RNA ONTO A SURFACE” (UNIVERSITY OF PORTSMOUTH, published 2014).

Data set [1] has as its target T1, streptavidin (UniProt P22629 P22629:25-183). Description: sandwich print slide capture, 37 C, PBS washes. As to conditions: chain copies: 4 inferred.
The target of data set [2] is T1, streptavidin. The data set is described as follows: bound streptavidin spot on slide also carrying tobramycin spot, 37 C, PBS washes. As to conditions: chain copies: 4 inferred; label: Cy3-UTP incorporated. How it is done:
(§1) ˜10 μl spots of 5 mM tobramycin or 16.6 μM streptavadin in PBS were pipetted onto NHS-activated slides (Schott Nexterion Slide H). The slides were incubated at 37° C. in a humidified petri dish for ˜1 hour. The slides were washed ˜3× with ˜5 ml PBST (0.5% Tween) and ˜1× with H₂O. The remainder of the NHS-activated surface was blocked with ethanolamine. ˜5 ml of 50 mM ethanolamine-HCl was used to cover the slides and they were incubated at room temperature for ˜1 hr. The slides were washed ˜3× with ˜5 ml PBST (0.5% Tween), 1× with H₂O and dried in air.
(§2) Following incubation at 37° C. for ˜1-4 hrs, the slides were separated and the in vitro transcription mix was recovered from the slide surface using a pipette. The DNA template slide was washed ˜3× with ˜5 ml PBS, ˜1× with ˜5 ml H₂O and air dried. The RNA-binding slide was washed ˜3× with ˜5 ml PBS, ˜1×˜5 ml H₂O and air dried. Cy-labelled RNA was visualized at 532 nm for Cy3 or 639 nm for Cy5. For unlabelled RNA, the RNA-binding slide was stained by covering the slide with ˜5 ml SYBR gold (Invitrogen, Paisley, UK; 5 μl of SYBR gold in ˜25 ml PBS) for 10 minutes and visualised with a UV transilluminator.

The target of data set [3] is T1, streptavidin. The data set is described as follows: sandwich print slide capture, T7 transcription mix, 37 C, PBS washes. Particulars: chain copies: 4 inferred; label: Cy3-UTP incorporated. How it is done:
as §1, §2
(§3) Only the MicASAApt, incorporating the stretpavadin aptamer, bound to the streptavidin RNA-binding slide. […]

Data set [4] concerns the target T1, streptavidin. Description: no-aptamer control, sandwich print slide capture, 37 C, PBS washes. As to conditions: chain copies: 4 inferred; label: Cy3-UTP incorporated. As for the experimental part:
as §1, §2, §3

T1 sequence (P22629 25-183, one chain of several): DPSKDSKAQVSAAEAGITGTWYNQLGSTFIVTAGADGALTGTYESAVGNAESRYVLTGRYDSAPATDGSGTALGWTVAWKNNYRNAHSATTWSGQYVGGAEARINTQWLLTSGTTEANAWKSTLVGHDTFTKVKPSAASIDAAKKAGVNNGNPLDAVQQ

B1: Qrr1SAApt RNA (ssRNA)
RNA: GGGUGACCCGCAAGGGUCACCUAGCCAACUGACGUUGUUAGUGAAUAAUCAAUGUUCACAAAUAACAGCCAAUAGACUCAUUCUAUUGGCUAUUUUUUUUUUUUUUUUUUUUUUUUUUUUGUGUGACCGACCAGAAUCAUGCAAGUGCGUAAGAUAGUCGCGGGCCGGGCACACA
For B1, the binding result with streptavidin [1] (label: Cy5-UTP incorporated) is reported as “binds”.

B2: M-SSAApt RNA (ssRNA)
RNA: GAAAGACGCGCAUUUGUUAUCAUCAUCCCUGGGAAAGCGAGGCUUUCCCUGGCCACUCACGAGUGGCCUUUUACACACACACACACACACACGCAUGCAUACCGACCAGAAUCAUGCAAGUGCGUAAGAUAGUCGCGGGCCGGGAUGCAUGC
For the molecule B2, the binding result in the data set with streptavidin [2] is “binds”.

B3: MicASAApt RNA (ssRNA)
RNA: GGGGAAAGACGCGCAUUUGUUAUCAUCAUCCCUGAAUUCAGAGAUGAAAUUUUGGCCACUCACGAGUGGCCUUUUACACACACACACACACACACGCAUGCAUACCGACCAGAAUCAUGCAAGUGCGUAAGAUAGUCGCGGGCCGGGAUGCAUGC
Turning to B3, in the data set with streptavidin [3], the binding result is given as “binds”.

B4: U1SAApt RNA (ssRNA)
RNA: GGGUAUCCAUUGCACUCCGGAUGCCUUUUUUUUUUUUUUUUUUUUUGUGUGACCGACCAGAAUCAUGCAAGUGCGUAAGAUAGUCGCGGGCCGGGCACACA
As to B4, the binding result in the data set with streptavidin [1] (label: Cy3-UTP incorporated) is reported as “binds”.

B5: MicA RNA without aptamer (ssRNA)
RNA: GGGGAAAGACGCGCAUUUGUUAUCAUCAUCCCUGAAUUCAGAGAUGAAAUUUUGGCCACUCACGAGUGGCCUUUU
With B5, in the data set with streptavidin [4], the binding result is “no binding”.
